Measurements from US20140213531A1 (POLYPHOR, published 2014).

T1: Elastase from human neutrophils (human, UniProt P08246 30-247, limits assumed)
T1 sequence (looked up): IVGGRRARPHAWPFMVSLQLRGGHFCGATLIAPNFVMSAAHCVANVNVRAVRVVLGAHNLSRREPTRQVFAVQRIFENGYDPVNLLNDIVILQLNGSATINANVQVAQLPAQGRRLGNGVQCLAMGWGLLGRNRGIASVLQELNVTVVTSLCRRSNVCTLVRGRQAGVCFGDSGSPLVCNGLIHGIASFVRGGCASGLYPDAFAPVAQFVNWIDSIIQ

T2: CathepsinG, from human neutrophils (human, UniProt P08311 21-244)
T2 sequence (looked up): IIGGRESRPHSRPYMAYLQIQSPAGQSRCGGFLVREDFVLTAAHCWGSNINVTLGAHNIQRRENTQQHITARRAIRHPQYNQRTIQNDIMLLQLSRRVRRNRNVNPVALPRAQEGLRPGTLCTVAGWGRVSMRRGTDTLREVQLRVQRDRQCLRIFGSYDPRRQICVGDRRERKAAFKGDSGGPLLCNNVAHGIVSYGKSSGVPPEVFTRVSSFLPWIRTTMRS

T3: Chymase, from human skin (human, UniProt P23946 22-247)
T3 sequence (looked up): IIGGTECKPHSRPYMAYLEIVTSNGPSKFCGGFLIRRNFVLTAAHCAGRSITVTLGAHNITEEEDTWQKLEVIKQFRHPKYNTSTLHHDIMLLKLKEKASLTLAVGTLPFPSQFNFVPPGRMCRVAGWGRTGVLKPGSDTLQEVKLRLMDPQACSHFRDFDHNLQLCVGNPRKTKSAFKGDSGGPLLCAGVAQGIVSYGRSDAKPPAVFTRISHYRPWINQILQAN


How the values were obtained:
Experiment in all cases: cell-based or functional assay
[1] = target: Trypsin, Iodination grade, from human pancreas (human, UniProt P07477 24-247)
[2] = target: T1, Elastase from human neutrophils
[3] = target: Urokinase from human urine (human, UniProt P00749 21-431, limits assumed)
[4] = target: Coagulation Factor Xa, from human plasma (human, UniProt P00742 41-488, limits assumed)
Chain of Coagulation Factor Xa, from human plasma (P00742 41-488 limits assumed): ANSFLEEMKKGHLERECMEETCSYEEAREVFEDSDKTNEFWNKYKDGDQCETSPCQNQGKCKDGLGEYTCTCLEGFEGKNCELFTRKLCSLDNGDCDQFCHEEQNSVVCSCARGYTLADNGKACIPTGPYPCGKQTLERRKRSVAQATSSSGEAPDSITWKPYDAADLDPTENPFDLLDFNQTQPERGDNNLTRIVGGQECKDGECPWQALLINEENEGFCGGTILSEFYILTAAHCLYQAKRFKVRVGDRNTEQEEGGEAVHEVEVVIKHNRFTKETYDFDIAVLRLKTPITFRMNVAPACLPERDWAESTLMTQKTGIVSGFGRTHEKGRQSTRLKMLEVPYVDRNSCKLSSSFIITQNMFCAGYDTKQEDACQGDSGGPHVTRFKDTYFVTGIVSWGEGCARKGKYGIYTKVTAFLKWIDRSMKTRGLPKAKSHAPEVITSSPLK

[5] = target: Tryptase, from human lung (human, UniProt Q15661 31-275, limits assumed)
Chain of Tryptase, from human lung (Q15661 31-275 limits assumed): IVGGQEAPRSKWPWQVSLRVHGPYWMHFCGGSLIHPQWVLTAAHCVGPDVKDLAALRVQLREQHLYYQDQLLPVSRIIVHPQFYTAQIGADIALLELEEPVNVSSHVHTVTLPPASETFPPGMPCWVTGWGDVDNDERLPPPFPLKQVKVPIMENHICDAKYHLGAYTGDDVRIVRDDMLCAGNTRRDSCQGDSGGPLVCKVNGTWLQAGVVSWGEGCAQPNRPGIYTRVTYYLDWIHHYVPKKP

[6] = target: T2, CathepsinG, from human neutrophils
[7] = target: T3, Chymase, from human skin
[8] = target: Thrombin, from Human Plasma, high activity (human, UniProt P00734 328-622)
[9] = target: Chymotrypsin, from human pancreas (human, UniProt P17538 19-263)
Chain of Chymotrypsin, from human pancreas (P17538 19-263): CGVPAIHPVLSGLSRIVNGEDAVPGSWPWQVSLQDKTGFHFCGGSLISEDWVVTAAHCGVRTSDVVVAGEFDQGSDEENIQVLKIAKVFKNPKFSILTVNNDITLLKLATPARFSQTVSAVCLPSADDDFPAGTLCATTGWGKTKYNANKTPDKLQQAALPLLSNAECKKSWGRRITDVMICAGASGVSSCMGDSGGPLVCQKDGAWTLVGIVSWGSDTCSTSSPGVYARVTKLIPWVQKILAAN

% inhibition at 100 µM [1]	IC50 [2]	% inhibition at 100 µM [3]	% inhibition at 100 µM [4]	% inhibition at 100 µM [5]	IC50 [6]	% inhibition at 100 µM [7]	% inhibition at 100 µM [8]	% inhibition at 100 µM [9]	Binder
100%	> 10000 nmol	14%	9%	50%	31 nmol	3%	9%	24%	XCTKSDPPICY (HELM PEPTIDE1{[Nle].C.T.K.S.D.P.P.I.C.Y.[dP].P}$PEPTIDE1,PEPTIDE1,2:R3-10:R3|PEPTIDE1,PEPTIDE1,1:R1-13:R2$$$V2.0; SMILES CCCC[C@@H]1NC(=O)[C@@H]2CCCN2C(=O)[C@H]2CCCN2C(=O)[C@H](Cc2ccc(O)cc2)NC(=O)[C@@H]2CSSC[C@H](NC1=O)C(=O)N[C@@H]([C@@H](C)O)C(=O)N[C@@H](CCCCN)C(=O)N[C@@H](CO)C(=O)N[C@@H](CC(=O)O)C(=O)N1CCC[C@H]1C(=O)N1CCC[C@H]1C(=O)N[C@@H]([C@@H](C)CC)C(=O)N2) [Example 44]
92%	> 100000 nmol	5.7%	0.2%	74%	56 nmol	0%	0.5%	3%	FCTKSDPPICY (HELM PEPTIDE1{F.C.T.K.S.D.P.P.I.C.Y.[dP].P}$PEPTIDE1,PEPTIDE1,2:R3-10:R3|PEPTIDE1,PEPTIDE1,1:R1-13:R2$$$V2.0; SMILES CC[C@H](C)[C@@H]1NC(=O)[C@@H]2CCCN2C(=O)[C@@H]2CCCN2C(=O)[C@H](CC(=O)O)NC(=O)[C@H](CO)NC(=O)[C@H](CCCCN)NC(=O)[C@H]([C@@H](C)O)NC(=O)[C@@H]2CSSC[C@H](NC1=O)C(=O)N[C@@H](Cc1ccc(O)cc1)C(=O)N1CCC[C@@H]1C(=O)N1CCC[C@H]1C(=O)N[C@@H](Cc1ccccc1)C(=O)N2) [Example 5]
87%	> 10000 nmol	6.3%	9.3%	0%	64 nmol	8.2%	0%	1%	FCTKSDPPICS (HELM PEPTIDE1{F.C.T.K.S.D.P.P.I.C.S.[dP].D}$PEPTIDE1,PEPTIDE1,2:R3-10:R3|PEPTIDE1,PEPTIDE1,1:R1-13:R2$$$V2.0; SMILES CC[C@H](C)[C@@H]1NC(=O)[C@@H]2CCCN2C(=O)[C@@H]2CCCN2C(=O)[C@H](CC(=O)O)NC(=O)[C@H](CO)NC(=O)[C@H](CCCCN)NC(=O)[C@H]([C@@H](C)O)NC(=O)[C@@H]2CSSC[C@H](NC1=O)C(=O)N[C@@H](CO)C(=O)N1CCC[C@@H]1C(=O)N[C@@H](CC(=O)O)C(=O)N[C@@H](Cc1ccccc1)C(=O)N2) [Example 47]
96%	> 100000 nmol	0%	0%	50%	41 nmol	7%	1%	11%	XCTKSDPPXCY (HELM PEPTIDE1{[O=C([C@@H](N[*:1])C1CCCCC1)[*:2]].C.T.K.S.D.P.P.[Nle].C.Y.[dP].P}$PEPTIDE1,PEPTIDE1,2:R3-10:R3|PEPTIDE1,PEPTIDE1,1:R1-13:R2$$$V2.0; SMILES CCCC[C@@H]1NC(=O)[C@@H]2CCCN2C(=O)[C@@H]2CCCN2C(=O)[C@H](CC(=O)O)NC(=O)[C@H](CO)NC(=O)[C@H](CCCCN)NC(=O)[C@H]([C@@H](C)O)NC(=O)[C@@H]2CSSC[C@H](NC1=O)C(=O)N[C@@H](Cc1ccc(O)cc1)C(=O)N1CCC[C@@H]1C(=O)N1CCC[C@H]1C(=O)N[C@@H](C1CCCCC1)C(=O)N2) [Example 63]
94%	> 100000 nmol	2%	0%	34%	38 nmol	0%	2%	7%	XCTKSDPPICD (HELM PEPTIDE1{[O=C([C@@H](N[*:1])C1CCCCC1)[*:2]].C.T.K.S.D.P.P.I.C.D.[dP].P}$PEPTIDE1,PEPTIDE1,2:R3-10:R3|PEPTIDE1,PEPTIDE1,1:R1-13:R2$$$V2.0; SMILES CC[C@H](C)[C@@H]1NC(=O)[C@@H]2CCCN2C(=O)[C@@H]2CCCN2C(=O)[C@H](CC(=O)O)NC(=O)[C@H](CO)NC(=O)[C@H](CCCCN)NC(=O)[C@H]([C@@H](C)O)NC(=O)[C@@H]2CSSC[C@H](NC1=O)C(=O)N[C@@H](CC(=O)O)C(=O)N1CCC[C@@H]1C(=O)N1CCC[C@H]1C(=O)N[C@@H](C1CCCCC1)C(=O)N2) [Example 39]
96%	> 100000 nmol	1%	0%	11%	31 nmol	1%	0%	4%	XCTKSDPPICT (HELM PEPTIDE1{[O=C([C@@H](N[*:1])C1CCCCC1)[*:2]].C.T.K.S.D.P.P.I.C.T.[dP].P}$PEPTIDE1,PEPTIDE1,2:R3-10:R3|PEPTIDE1,PEPTIDE1,1:R1-13:R2$$$V2.0; SMILES CC[C@H](C)[C@@H]1NC(=O)[C@@H]2CCCN2C(=O)[C@@H]2CCCN2C(=O)[C@H](CC(=O)O)NC(=O)[C@H](CO)NC(=O)[C@H](CCCCN)NC(=O)[C@H]([C@@H](C)O)NC(=O)[C@@H]2CSSC[C@H](NC1=O)C(=O)N[C@@H]([C@@H](C)O)C(=O)N1CCC[C@@H]1C(=O)N1CCC[C@H]1C(=O)N[C@@H](C1CCCCC1)C(=O)N2) [Example 38]
94%	> 44900 nmol	10%	3%	33%	25 nmol	8%	1%	19%	XCTKSDPPICY (HELM PEPTIDE1{[O=C([C@@H](N[*:1])C1CCCCC1)[*:2]].C.T.K.S.D.P.P.I.C.Y.[dP].P}$PEPTIDE1,PEPTIDE1,2:R3-10:R3|PEPTIDE1,PEPTIDE1,1:R1-13:R2$$$V2.0; SMILES CC[C@H](C)[C@@H]1NC(=O)[C@@H]2CCCN2C(=O)[C@@H]2CCCN2C(=O)[C@H](CC(=O)O)NC(=O)[C@H](CO)NC(=O)[C@H](CCCCN)NC(=O)[C@H]([C@@H](C)O)NC(=O)[C@@H]2CSSC[C@H](NC1=O)C(=O)N[C@@H](Cc1ccc(O)cc1)C(=O)N1CCC[C@@H]1C(=O)N1CCC[C@H]1C(=O)N[C@@H](C1CCCCC1)C(=O)N2) [Example 40]
95%	> 100000 nmol	5.8%	12.2%	44.1%	87.5 nmol	10.2%	6.9%	0%	FCTKSDPPICS (HELM PEPTIDE1{F.C.T.K.S.D.P.P.I.C.S.[dD].P}$PEPTIDE1,PEPTIDE1,2:R3-10:R3|PEPTIDE1,PEPTIDE1,1:R1-13:R2$$$V2.0; SMILES CC[C@H](C)[C@@H]1NC(=O)[C@@H]2CCCN2C(=O)[C@@H]2CCCN2C(=O)[C@H](CC(=O)O)NC(=O)[C@H](CO)NC(=O)[C@H](CCCCN)NC(=O)[C@H]([C@@H](C)O)NC(=O)[C@@H]2CSSC[C@H](NC1=O)C(=O)N[C@@H](CO)C(=O)N[C@H](CC(=O)O)C(=O)N1CCC[C@H]1C(=O)N[C@@H](Cc1ccccc1)C(=O)N2) [Example 46]
96%	> 100000 nmol	5.4%	2.4%	0%	91 nmol	0%	0%	1.8%	FCTKSDPPICS (HELM PEPTIDE1{F.C.T.K.S.D.P.P.I.C.S.[dP].P}$PEPTIDE1,PEPTIDE1,2:R3-10:R3|PEPTIDE1,PEPTIDE1,1:R1-13:R2$$$V2.0; SMILES CC[C@H](C)[C@@H]1NC(=O)[C@@H]2CCCN2C(=O)[C@@H]2CCCN2C(=O)[C@H](CC(=O)O)NC(=O)[C@H](CO)NC(=O)[C@H](CCCCN)NC(=O)[C@H]([C@@H](C)O)NC(=O)[C@@H]2CSSC[C@H](NC1=O)C(=O)N[C@@H](CO)C(=O)N1CCC[C@@H]1C(=O)N1CCC[C@H]1C(=O)N[C@@H](Cc1ccccc1)C(=O)N2) [Example 4]
